Tests used:
[1] = system: HLA-A2/pp65 complex (pp65 495-503 peptide); assay: ELISA with phage clones and purified Fab Abs, specific complex; assay type: binding, human; conditions: soluble purified Fab
Method: ELISA with phage clones and purified Fab Abs—The binding specificities of individual phage clones and soluble Fab were determined by ELISA using biotinylated scMHC-peptide complexes. ELISA plates (Falcon) were coated overnight with BSA-biotin (1 μg/well). After having been washed, the plates were incubated (1 hour, RT) with streptavidin (1 μg/well), washed extensively, and further incubated (1 hour, RT) with 0.5 μg of MHC/peptide complexes. The plates were blocked for 30 minutes at RT with PBS/2% skim milk and subsequently were incubated for 1 hour at RT with phage clones (˜10^9 phages/well) or various concentrations of soluble purified Fab. […]
A large human Fab library containing 3.7×10^10 different Fab clones was used for the selection on biotinylatd HLA-A2/pp65 complexes (De Haard H J., et al., 1999). […] Specificity of the selected phage antibodies against the complex was analyzed by a differential ELISA assay in which binding was tested against specific (pp65 495-503 peptide; SEQ ID NO:3) and non specific (gp100 280-288 peptide; SEQ ID NO:4) biotinylated HLA-A2/peptide complexes. […]
To determine the correct folding of the bound complexes and their stability during the binding assays, the ability of the complexes to react with the conformation-specific mAb, w6/32, that recognizes HLA complexes only when folded correctly and when containing peptide was monitored.

[2] = molecular target: T1, pp65-loaded RMA-S-HHD cells (UniProt P06725+P61769); assay: Flow cytometry on peptide-loaded RMA-S-HHD cells; assay type: cell-based, murine; conditions: Fab, control: EBV derived peptide
T1 construct: expressed in transfected cells; host or cells: murine TAP2-deficient RMA-S cells (RMA-S-HHD)
Method: Flow cytometry—The B cell line RMAS-HHD, which is transfected with a single-chain β2m-HLA-A2 gene, the EBV-transformed HLA-A2^+ JY cells, and the HLA-A2− B cell line APD-70 were used to determine the reactivity of the recombinant Fab Abs with cell surface-expressed HLA-A2/peptide complexes. Peptide pulsing was performed as indicated: 10^6 cells were washed twice with serum-free RPMI and incubated overnight at 26° C. or 37° C., respectively, in medium containing 1-50 μM of the peptide. The RMAS-HHD cells were subsequently incubated at 37° C. for 2-3 hours to stabilize cell surface expression of MHC-peptide complexes.
Cells were incubated for 60 minutes at 4° C. with recombinant Fab Abs (10 μg/ml) in 100 μl PBS. After one wash, the cells were incubated with 1 μg anti-human Fab (Jackson ImmunoResearch) for another 60 minutes at 4° C. After three washes, the cells were resuspended in ice-cold PBS. The cells were analyzed by a FACStar flow cytometer (BD Biosciences, San Jose, Calif.).
The pp65495-503 peptide and control peptides were loaded on RMA-S-HHD cells and the ability of the selected Fab Abs to bind to peptide-loaded cells was monitored by flow cytometry.

B1: F5: human recombinant TCR-like Fab clone specific for HLA-A2/pp65 495-503; heavy chain SEQ ID NO:20, light chain SEQ ID NO:22 (antibody)
heavy: QVQLQESGPGLVKPSETLSLTCTVSGGSISSSNYYWGWIRQPPGKGLEWIGAIYYSGSTYYNPSLKSRVAISVDTSKNQFSLKLSSVTAADTAVYYCARRIGVAGQWYFDLWGRGTLVTVSSASTKGPSVFPLAPSSKSTSGGTAALGCLVKDYFPEPVTVSWNSGALTSGVHTFPAVLQSSGLYSLSSVVTVPSSSLGTQTYICNVNHKPSNTKVDKKVEPKSC
light: LNFMLTQPHSVSGSPGKTVTISCTRSTGSITSNYVHWYQQRPGSSPTTVICEDNERPSGVPDRFSGSIDISSNSASLTISGLKTEDEADYYCQSYDDSNHISVFGTGTKVTVLGQPKANPCLISDFYPGAVTVAWKADGSPVKAGVETTKPSKQSNNKYAASSYLSLTPEQWKSHRSYSCQVTHEGSTVEKTVAPAECS
modifications: F5 Fab heavy chain polypeptide sequence; F5 Fab light chain polypeptide sequence
binding to the specific HLA-A2/pp65 complex [1]: Specificity towards HLA-A2/pp65 complex
reactivity with peptide-loaded RMA-S-HHD cells [2]: reacted only with pp65-loaded RMA-S-HHD cells
